The record followed here is PMC3644091.

The test deals with IP39, 39-kDa integral membrane protein of Euglena gracilis (Euglena gracilis). The experiment in a line: cryo-EM structure.

By stoichiometry N is commonly meant the number of molecules, sites or subunits per partner or assembly. In turn, “IP39, 39-kDa integral membrane protein of Euglena gracilis (natural protein)” showed a stoichiometry N of 3.
